Measured values: US20240270846A1 (published 2024)

B1: CE115HA000 H35N one-arm antibody (antibody, human IgG1, kappa, L234A L235A, N297A, name in Kabat numbering)
heavy: QVQLVESGGGVVQPGRSLRLSCAASGFTFSNAWMNWVRQAPGKGLEWVAQIKAKSNNYATYYAESVKGRFTISRDDSKNSLYLQMNSLKTEDTAVYYCRYVHYGAYYGVDAWGQGTTVTVSSASTKGPSVFPLAPSSKSTSGGTAALGCLVKDYFPEPVTVSWNSGALTSGVHTFPAVLQSSGLYSLSSVVTVPSSSLGTQTYICNVNHKPSNTKVDKKVEPKSCDKTHTCPPCPAPEAAGGPSVFLFPPKPKDTLMISRTPEVTCVVVDVSHEDPEVKFNWYVDGVEVHNAKTKPREEQYASTYRVVSVLTVLHQDWLNGKEYKCKVSNKALPAPIEKTISKAKGQPREPQVYTLPPSRCELTKNQVSLSCAVKGFYPSDIAVEWESNGQPENNYKTTPPVLDSDGSFFLVSKLTVDKSRWQQGNVFSCSVMHEALHNHYTQKSLSLSPDYKDDDDK
chain: EPKSSDKTHTCPPCPAPELLGGPSVFLFPPKPKDTLMISRTPEVTCVVVDVSHEDPEVKFNWYVDGVEVHNAKTKPREEQYNSTYRVVSVLTVLHQDWLNGKEYKCKVSNKALPAPIEKTISKAKGQPREPQVCTLPPSRDELTKNQVSLWCLVKGFYPSDIAVEWESNGQPENNYKTTPPVLDSDGSFFLYSKLTVDKSRWQQGNVFSCSVMHEALHNRYTQKSLSLSP
light: DIVMTQSPLSLPVTPGEPASISCRSSQSLVHSNRNTYLHWYQQKPGQAPRLLIYKVSNRFSGVPDRFSGSGSGTDFTLKISRVEAEDVGVYYCGQGTQVPYTFGQGTKLEIKRTVAAPSVFIFPPSDEQLKSGTASVVCLLNNFYPREAKVQWKVDNALQSGNSQESVTEQDSKDSTYSLSSTLTLSKADYEKHKVYACEVTHQGLSSPVTKSFNRGEC
notes: one-arm antibody
B2: CE115HA000 H35V one-arm antibody (antibody, human IgG1, kappa, L234A L235A, N297A, name in Kabat numbering)
heavy: QVQLVESGGGVVQPGRSLRLSCAASGFTFSNAWMVWVRQAPGKGLEWVAQIKAKSNNYATYYAESVKGRFTISRDDSKNSLYLQMNSLKTEDTAVYYCRYVHYGAYYGVDAWGQGTTVTVSSASTKGPSVFPLAPSSKSTSGGTAALGCLVKDYFPEPVTVSWNSGALTSGVHTFPAVLQSSGLYSLSSVVTVPSSSLGTQTYICNVNHKPSNTKVDKKVEPKSCDKTHTCPPCPAPEAAGGPSVFLFPPKPKDTLMISRTPEVTCVVVDVSHEDPEVKFNWYVDGVEVHNAKTKPREEQYASTYRVVSVLTVLHQDWLNGKEYKCKVSNKALPAPIEKTISKAKGQPREPQVYTLPPSRCELTKNQVSLSCAVKGFYPSDIAVEWESNGQPENNYKTTPPVLDSDGSFFLVSKLTVDKSRWQQGNVFSCSVMHEALHNHYTQKSLSLSPDYKDDDDK
chain: EPKSSDKTHTCPPCPAPELLGGPSVFLFPPKPKDTLMISRTPEVTCVVVDVSHEDPEVKFNWYVDGVEVHNAKTKPREEQYNSTYRVVSVLTVLHQDWLNGKEYKCKVSNKALPAPIEKTISKAKGQPREPQVCTLPPSRDELTKNQVSLWCLVKGFYPSDIAVEWESNGQPENNYKTTPPVLDSDGSFFLYSKLTVDKSRWQQGNVFSCSVMHEALHNRYTQKSLSLSP
light: DIVMTQSPLSLPVTPGEPASISCRSSQSLVHSNRNTYLHWYQQKPGQAPRLLIYKVSNRFSGVPDRFSGSGSGTDFTLKISRVEAEDVGVYYCGQGTQVPYTFGQGTKLEIKRTVAAPSVFIFPPSDEQLKSGTASVVCLLNNFYPREAKVQWKVDNALQSGNSQESVTEQDSKDSTYSLSSTLTLSKADYEKHKVYACEVTHQGLSSPVTKSFNRGEC
notes: one-arm antibody
B3: CE115HA000 H35Q one-arm antibody (antibody, human IgG1, kappa, L234A L235A, N297A, name in Kabat numbering)
heavy: QVQLVESGGGVVQPGRSLRLSCAASGFTFSNAWMQWVRQAPGKGLEWVAQIKAKSNNYATYYAESVKGRFTISRDDSKNSLYLQMNSLKTEDTAVYYCRYVHYGAYYGVDAWGQGTTVTVSSASTKGPSVFPLAPSSKSTSGGTAALGCLVKDYFPEPVTVSWNSGALTSGVHTFPAVLQSSGLYSLSSVVTVPSSSLGTQTYICNVNHKPSNTKVDKKVEPKSCDKTHTCPPCPAPEAAGGPSVFLFPPKPKDTLMISRTPEVTCVVVDVSHEDPEVKFNWYVDGVEVHNAKTKPREEQYASTYRVVSVLTVLHQDWLNGKEYKCKVSNKALPAPIEKTISKAKGQPREPQVYTLPPSRCELTKNQVSLSCAVKGFYPSDIAVEWESNGQPENNYKTTPPVLDSDGSFFLVSKLTVDKSRWQQGNVFSCSVMHEALHNHYTQKSLSLSPDYKDDDDK
chain: EPKSSDKTHTCPPCPAPELLGGPSVFLFPPKPKDTLMISRTPEVTCVVVDVSHEDPEVKFNWYVDGVEVHNAKTKPREEQYNSTYRVVSVLTVLHQDWLNGKEYKCKVSNKALPAPIEKTISKAKGQPREPQVCTLPPSRDELTKNQVSLWCLVKGFYPSDIAVEWESNGQPENNYKTTPPVLDSDGSFFLYSKLTVDKSRWQQGNVFSCSVMHEALHNRYTQKSLSLSP
light: DIVMTQSPLSLPVTPGEPASISCRSSQSLVHSNRNTYLHWYQQKPGQAPRLLIYKVSNRFSGVPDRFSGSGSGTDFTLKISRVEAEDVGVYYCGQGTQVPYTFGQGTKLEIKRTVAAPSVFIFPPSDEQLKSGTASVVCLLNNFYPREAKVQWKVDNALQSGNSQESVTEQDSKDSTYSLSSTLTLSKADYEKHKVYACEVTHQGLSSPVTKSFNRGEC
notes: one-arm antibody
B4: CE115HA000 H35R one-arm antibody (antibody, human IgG1, kappa, L234A L235A, N297A, name in Kabat numbering)
heavy: QVQLVESGGGVVQPGRSLRLSCAASGFTFSNAWMRWVRQAPGKGLEWVAQIKAKSNNYATYYAESVKGRFTISRDDSKNSLYLQMNSLKTEDTAVYYCRYVHYGAYYGVDAWGQGTTVTVSSASTKGPSVFPLAPSSKSTSGGTAALGCLVKDYFPEPVTVSWNSGALTSGVHTFPAVLQSSGLYSLSSVVTVPSSSLGTQTYICNVNHKPSNTKVDKKVEPKSCDKTHTCPPCPAPEAAGGPSVFLFPPKPKDTLMISRTPEVTCVVVDVSHEDPEVKFNWYVDGVEVHNAKTKPREEQYASTYRVVSVLTVLHQDWLNGKEYKCKVSNKALPAPIEKTISKAKGQPREPQVYTLPPSRCELTKNQVSLSCAVKGFYPSDIAVEWESNGQPENNYKTTPPVLDSDGSFFLVSKLTVDKSRWQQGNVFSCSVMHEALHNHYTQKSLSLSPDYKDDDDK
chain: EPKSSDKTHTCPPCPAPELLGGPSVFLFPPKPKDTLMISRTPEVTCVVVDVSHEDPEVKFNWYVDGVEVHNAKTKPREEQYNSTYRVVSVLTVLHQDWLNGKEYKCKVSNKALPAPIEKTISKAKGQPREPQVCTLPPSRDELTKNQVSLWCLVKGFYPSDIAVEWESNGQPENNYKTTPPVLDSDGSFFLYSKLTVDKSRWQQGNVFSCSVMHEALHNRYTQKSLSLSP
light: DIVMTQSPLSLPVTPGEPASISCRSSQSLVHSNRNTYLHWYQQKPGQAPRLLIYKVSNRFSGVPDRFSGSGSGTDFTLKISRVEAEDVGVYYCGQGTQVPYTFGQGTKLEIKRTVAAPSVFIFPPSDEQLKSGTASVVCLLNNFYPREAKVQWKVDNALQSGNSQESVTEQDSKDSTYSLSSTLTLSKADYEKHKVYACEVTHQGLSSPVTKSFNRGEC
notes: one-arm antibody
B5: CE115HA000 H35T one-arm antibody (antibody, human IgG1, kappa, L234A L235A, N297A, name in Kabat numbering)
heavy: QVQLVESGGGVVQPGRSLRLSCAASGFTFSNAWMTWVRQAPGKGLEWVAQIKAKSNNYATYYAESVKGRFTISRDDSKNSLYLQMNSLKTEDTAVYYCRYVHYGAYYGVDAWGQGTTVTVSSASTKGPSVFPLAPSSKSTSGGTAALGCLVKDYFPEPVTVSWNSGALTSGVHTFPAVLQSSGLYSLSSVVTVPSSSLGTQTYICNVNHKPSNTKVDKKVEPKSCDKTHTCPPCPAPEAAGGPSVFLFPPKPKDTLMISRTPEVTCVVVDVSHEDPEVKFNWYVDGVEVHNAKTKPREEQYASTYRVVSVLTVLHQDWLNGKEYKCKVSNKALPAPIEKTISKAKGQPREPQVYTLPPSRCELTKNQVSLSCAVKGFYPSDIAVEWESNGQPENNYKTTPPVLDSDGSFFLVSKLTVDKSRWQQGNVFSCSVMHEALHNHYTQKSLSLSPDYKDDDDK
chain: EPKSSDKTHTCPPCPAPELLGGPSVFLFPPKPKDTLMISRTPEVTCVVVDVSHEDPEVKFNWYVDGVEVHNAKTKPREEQYNSTYRVVSVLTVLHQDWLNGKEYKCKVSNKALPAPIEKTISKAKGQPREPQVCTLPPSRDELTKNQVSLWCLVKGFYPSDIAVEWESNGQPENNYKTTPPVLDSDGSFFLYSKLTVDKSRWQQGNVFSCSVMHEALHNRYTQKSLSLSP
light: DIVMTQSPLSLPVTPGEPASISCRSSQSLVHSNRNTYLHWYQQKPGQAPRLLIYKVSNRFSGVPDRFSGSGSGTDFTLKISRVEAEDVGVYYCGQGTQVPYTFGQGTKLEIKRTVAAPSVFIFPPSDEQLKSGTASVVCLLNNFYPREAKVQWKVDNALQSGNSQESVTEQDSKDSTYSLSSTLTLSKADYEKHKVYACEVTHQGLSSPVTKSFNRGEC
notes: one-arm antibody
B6: CE115HA000 H35S one-arm antibody (antibody, human IgG1, kappa, L234A L235A, N297A, name in Kabat numbering)
heavy: QVQLVESGGGVVQPGRSLRLSCAASGFTFSNAWMSWVRQAPGKGLEWVAQIKAKSNNYATYYAESVKGRFTISRDDSKNSLYLQMNSLKTEDTAVYYCRYVHYGAYYGVDAWGQGTTVTVSSASTKGPSVFPLAPSSKSTSGGTAALGCLVKDYFPEPVTVSWNSGALTSGVHTFPAVLQSSGLYSLSSVVTVPSSSLGTQTYICNVNHKPSNTKVDKKVEPKSCDKTHTCPPCPAPEAAGGPSVFLFPPKPKDTLMISRTPEVTCVVVDVSHEDPEVKFNWYVDGVEVHNAKTKPREEQYASTYRVVSVLTVLHQDWLNGKEYKCKVSNKALPAPIEKTISKAKGQPREPQVYTLPPSRCELTKNQVSLSCAVKGFYPSDIAVEWESNGQPENNYKTTPPVLDSDGSFFLVSKLTVDKSRWQQGNVFSCSVMHEALHNHYTQKSLSLSPDYKDDDDK
chain: EPKSSDKTHTCPPCPAPELLGGPSVFLFPPKPKDTLMISRTPEVTCVVVDVSHEDPEVKFNWYVDGVEVHNAKTKPREEQYNSTYRVVSVLTVLHQDWLNGKEYKCKVSNKALPAPIEKTISKAKGQPREPQVCTLPPSRDELTKNQVSLWCLVKGFYPSDIAVEWESNGQPENNYKTTPPVLDSDGSFFLYSKLTVDKSRWQQGNVFSCSVMHEALHNRYTQKSLSLSP
light: DIVMTQSPLSLPVTPGEPASISCRSSQSLVHSNRNTYLHWYQQKPGQAPRLLIYKVSNRFSGVPDRFSGSGSGTDFTLKISRVEAEDVGVYYCGQGTQVPYTFGQGTKLEIKRTVAAPSVFIFPPSDEQLKSGTASVVCLLNNFYPREAKVQWKVDNALQSGNSQESVTEQDSKDSTYSLSSTLTLSKADYEKHKVYACEVTHQGLSSPVTKSFNRGEC
notes: one-arm antibody

Each binder was assayed against T1, CD3 epsilon homodimer protein (UniProt P07766 23-126) (assay: SPR Biacore T200, antibody over immobilised CD3e homodimer;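 also: CD3 epsilon homodimer amine-coupled on a CM4 chip, run at 25 °C in HBS-EP+, Z = bound amount of each single-residue H chain variant over that of the parent antibody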).
T1 construct: also called CD3 (CD3 epsilon)
T1 sequence (P07766 23-126): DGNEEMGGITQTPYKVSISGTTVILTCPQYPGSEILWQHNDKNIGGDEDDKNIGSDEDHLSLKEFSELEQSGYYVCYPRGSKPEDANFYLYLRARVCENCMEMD
Protocol: An appropriate amount of CD3 epsilon homodimer protein was immobilized onto Sensor chip CM4 (GE Healthcare Japan Corp.) by the amine coupling method. Then, the antibody having an appropriate concentration was injected thereto as an analyte and allowed to interact with the CD3 epsilon homodimer protein on the sensor chip. Then, the sensor chip was regenerated by the injection of 10 mmol/L glycine-HCl (pH 1.5). The assay was conducted at 25 degrees C., and HBS-EP+(GE Healthcare Japan Corp.) was used as a running buffer. […] Each parameter was calculated using Biacore T200 Evaluation Software (GE Healthcare Japan Corp.).
Specifically, when the amount of the antibody comprising CE115HA000 bound was defined as X and the amount of the H chain one-amino acid altered form bound was defined as Y, a value of Z (ratio of amounts bound)=Y/X was used.
For B1, the “ratio of amounts bound (Z=Y/X vs CE115HA000)” value (“ratio of amounts bound” for short) was 0.35.
With B2 the “ratio of amounts bound” value was 0.22.
For B3, the “ratio of amounts bound” value was 0.13.
With B4 the “ratio of amounts bound” value was 0.14.
For B5, the “ratio of amounts bound” value was 0.26.
With B6 the “ratio of amounts bound” value was 0.23.
